The target of this test is cetuximab (unconjugated anti-EGFR antibody). In words: cell-based or functional assay.

The values that follow come from patent US20210401986A1.

Substance “AffiniPure Donkey Anti-Human IgG, Fcγ Fragment Specific (DxHu) antibody conjugated with IRDye 700DX” displayed a percent cell death of BxPC3 cells (CellTox Green) after sequential labeling and 690 nm light at 16 J/cm^2 of 90%.
